Series [1] concerns the target T1, His-RecA WT, activated as RecA* (nucleoprotein filament on ssDNA with ATPγS) (E. coli, UniProt P0A7G6 1-353).
T1 construct: RecA, E. coli; source: E. coli ΔrecA BLR(DE3), purified (cobalt resin, ammonium sulfate, heparin); not shown: poly-His, N-terminal, kept
T1 sequence (looked up): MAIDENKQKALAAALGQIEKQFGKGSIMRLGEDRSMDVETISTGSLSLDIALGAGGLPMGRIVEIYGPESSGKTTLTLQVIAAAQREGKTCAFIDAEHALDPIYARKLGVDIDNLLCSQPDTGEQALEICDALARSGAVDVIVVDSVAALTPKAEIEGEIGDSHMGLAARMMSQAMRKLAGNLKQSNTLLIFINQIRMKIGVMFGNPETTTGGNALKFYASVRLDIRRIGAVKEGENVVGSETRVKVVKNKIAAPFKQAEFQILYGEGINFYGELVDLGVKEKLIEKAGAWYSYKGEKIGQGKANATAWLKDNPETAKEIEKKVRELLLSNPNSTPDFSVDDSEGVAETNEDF
The series can be described thus: fluorescence polarisation; competition, fluorescence anisotropy; unlabeled LexA K156A or QM (140 nM to 18.3 µM) spiked into pre-formed RecA* alongside LexA Q161δ; three-parameter dose-response fit. To be noted: both partners purified.

Series [2] deals with the molecule itself. Kind of series: cryo-EM structure; RecA* pre-formed from 5 µM His-RecA WT and 1 µM GGT 90-mer ssDNA in 70 mM Tris-HCl pH 7.5, 150 mM NaCl, 1 mM MgCl2, 2 mM TCEP, 0.25 mM ATPγS, 20 min; LexA K156A added to 25 µM, 30 min, room temperature.

B1: His-LexA K156A (natural protein, E. coli, UniProt P0A7C2 1-202, looked up)
chain: MKALTARQQEVFDLIRDHISQTGMPPTRAEIAQRLGFRSPNAAEEHLKALARKGVIEIVSGASRGIRLLQEEEEGLPLVGRVAAGEPLLAQQHIEGHYQVDPSLFKPNADFLLRVSGMSMKDIGIMDGDLLAVHKTQDVRNGQVVVARIDDEVTVARLKKQGNKVELLPENSEFKPIVVDLRQQSFTIEGLAVGVIRNGDWL
notes: LexA repressor, E. coli; source: E. coli BL21(DE3), purified (cobalt resin, heparin)
B1: the binding result in series [1] is “binds”.

B2: untagged LexA K156A (full-length, catalytically inactive) (natural protein, E. coli, UniProt P0A7C2 1-202, looked up)
chain: MKALTARQQEVFDLIRDHISQTGMPPTRAEIAQRLGFRSPNAAEEHLKALARKGVIEIVSGASRGIRLLQEEEEGLPLVGRVAAGEPLLAQQHIEGHYQVDPSLFKPNADFLLRVSGMSMKDIGIMDGDLLAVHKTQDVRNGQVVVARIDDEVTVARLKKQGNKVELLPENSEFKPIVVDLRQQSFTIEGLAVGVIRNGDWL
notes: LexA repressor, E. coli; Used for cryo-EM only; source: E. coli BL21(DE3), purified (cobalt resin, heparin; His-tag removed with thrombin); not shown: poly-His, N-terminal, cleaved
As for B2, the binding result in series [2] is “binds”.

B3: LexA quad-mutant (QM): L89P, Q92W, E152A, K156A (natural protein, E. coli, UniProt P0A7C2 1-202, looked up)
chain: MKALTARQQEVFDLIRDHISQTGMPPTRAEIAQRLGFRSPNAAEEHLKALARKGVIEIVSGASRGIRLLQEEEEGLPLVGRVAAGEPLPAQWHIEGHYQVDPSLFKPNADFLLRVSGMSMKDIGIMDGDLLAVHKTQDVRNGQVVVARIDDAVTVARLKKQGNKVELLPENSEFKPIVVDLRQQSFTIEGLAVGVIRNGDWL
notes: LexA repressor, E. coli; also called LexA QM; hyperactive LexA variant; source: E. coli BL21(DE3), purified (cobalt resin, heparin)
On to B3, for which, in series [1], the “fold weaker binding relative to LexA K156A” value was about 8 fold.

For the origin of these results see article doi:10.1101/2023.10.30.564768, “The LexA-RecA* structure reveals a lock-and-key mechanism for SOS activation” (bioRxiv, 2023).
